Earlier results, collected in article PMC10605242.

Tests used:
[1] = biological target: C4b dimer (A isoform) (Homo sapiens) (UniProt P0C0L4)
[2] = biological target: C4b dimer (B isoform) (Homo sapiens) (UniProt P0C0L5)
[3] = biological target: C4b (Homo sapiens) (UniProt P0C0L4)

Substance	Kd [1] [nM]	Kd [2] [nM]	Kd [3] [nM]
CR1 (from UniProt P17927)	130	445	
CR1 SCR15-18 (from UniProt P17927)			1200
